Data: PMC9388126 (Proceedings of the National Academy of Sciences of the …, 2022)

Columns and labels:
[1] = molecular target: clawed frog GNPTG (gamma subunit of GNPT) (clawed frog (Xenopus laevis)); test: crystal structure
[2] = molecular target: the molecule itself; test: crystal structure

stoichiometry N [1] | Molecule | stoichiometry N [2]
2 | clawed frog GNPTG (gamma subunit of GNPT) (natural protein) | 
 | zebrafish GNPTAB minimal construct (catalytic and EF-hand domains) (domain or fragment, N-linked glycans (up to five visible on each chain)) EVVVEWSRDQYHVLFDSYRDNVAGKSFQTRLCLPMPIDVVYTWVNGTDPKLIKEVTELKRSKRDPLIPECQGKQTPEKDKCYRDDNTASRFEDNEELRYSLRSIEKHAPWVRHIFIVTNGQIPSWLNLDNPRVSVVTHQDIFQNQTHLPTFSSPAIETHIHRIPGLSQKFIYLNDDVMFGKDVWPDDFYSHSKGQKVYLTWPVPNDTFADSLRYVNRLLNAQFGFTSRKVPAHMPHMIDRLIMQELQDTFPQEFDKTSSHRVRHSEDMQFAFSYFYFLMSAVQQLNISEVFDEIDTDHSGVLSDREIRTLATRIHELPLSLQDLTSLEQMLINCSKSLPSNLTHLHAVSPTQEAYYDPSMPPVTKGLVIHCKPITERIHKAFKDQNKYKFEIMGEEEIAFKMIRTNVSHVVGQLDDIRKNPRKFICLNDNIDHIHKDAGTVKAVLRDFYESMFPLPSQFELPREYRNRFLHMTELQEWRIYRDKL | 2
